# Data from patent US20220040297A1 (Chugai, published 2022).
# Numbering of substitutions follows the chain as printed. Names and notes keep the numbering of the source.
# T1: biotin-labeled human CD154 (human, UniProt P29965 113-261, limits assumed, biotin-labeled)
# T1 construct: also called biotinylated human CD154
# T1 sequence (looked up): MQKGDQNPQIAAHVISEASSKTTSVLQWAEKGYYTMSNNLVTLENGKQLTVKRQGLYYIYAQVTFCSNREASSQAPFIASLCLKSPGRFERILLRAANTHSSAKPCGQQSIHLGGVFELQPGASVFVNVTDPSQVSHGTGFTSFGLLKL
# B1: 154R5A02#1 (antibody, human IgG1, kappa, L234A L235A, N297A)
# heavy: QVQLVESGGGLVQPGRSLRLSCAASGFTFSNAWMHWVRQAPGKGLEWVAQIKDRGNNYNTYYAPSVKGRFTISRDDSKNSIYLQMNSLKTEDTAVYYCRYVHYGSYFFSGSSFGVDIWGQGTTVTVSSASTKGPSVFPLAPSSKSTSGGTAALGCLVKDYFPEPVTVSWNSGALTSGVHTFPAVLQSSGLYSLSSVVTVPSSSLGTQTYICNVNHKPSNTKVDKKVEPKSCDKTHTCPPCPAPEAAGGPSVFLFPPKPKDTLMISRTPEVTCVVVDVSHEDPEVKFNWYVDGVEVHNAKTKPREEQYASTYRVVSVLTVLHQDWLNGKEYKCKVSNKALPAPIEKTISKAKGQPREPQVYTLPPSRCELTKNQVSLSCAVKGFYPSDIAVEWESNGQPENNYKTTPPVLDSDGSFFLVSKLTVDKSRWQQGNVFSCSVMHEALHNHYTQKSLSLSPDYKDDDDK
# chain: EPKSSDKTHTCPPCPAPELLGGPSVFLFPPKPKDTLMISRTPEVTCVVVDVSHEDPEVKFNWYVDGVEVHNAKTKPREEQYNSTYRVVSVLTVLHQDWLNGKEYKCKVSNKALPAPIEKTISKAKGQPREPQVCTLPPSRDELTKNQVSLWCLVKGFYPSDIAVEWESNGQPENNYKTTPPVLDSDGSFFLYSKLTVDKSRWQQGNVFSCSVMHEALHNRYTQKSLSLSP
# light: DIVMTQSPLSLPVTPGEPASISCRSSQSLVHSNRNTYLHWYQQKPGQAPRLLIYKVSNRFSGVPDRFSGSGSGTDFTLKISRVEAEDVGVYYCGQGTQVPYTFGQGTKLEIKRTVAAPSVFIFPPSDEQLKSGTASVVCLLNNFYPREAKVQWKVDNALQSGNSQESVTEQDSKDSTYSLSSTLTLSKADYEKHKVYACEVTHQGLSSPVTKSFNRGEC
# notes: One-arm antibody
# B2: 154R5E11#3 (antibody, human IgG1, kappa, L234A L235A, N297A)
# heavy: B1 heavy with N59A, T60A, P64E, S109A, G110S, S111F, S112Y, T123A
# chain: B1 chain
# light: B1 light
# notes: One-arm antibody
# B3: 154R5F08#1 (antibody, human IgG1, kappa, L234A L235A, N297A)
# heavy: B1 heavy with R54K, N57Q, N59A, P64E, S105T, S109A, G110L, S111P, S112A
# chain: B1 chain
# light: B1 light
# notes: One-arm antibody
# B4: 154R5A02#2 (antibody, human IgG1, kappa, L234A L235A, N297A)
# heavy: B1 heavy with V101A
# chain: B1 chain
# light: B1 light
# notes: One-arm antibody
# B5: 154R5F08#3 (antibody, human IgG1, kappa, L234A L235A, N297A)
# heavy: B1 heavy with R54K, N57Q, N59A, P64E, F70Y, S105T, S109A, G110L, S111P, S112A
# chain: B1 chain
# light: B1 light
# notes: One-arm antibody
# B6: CE115HA000 V11L/D72A/L78I/D101Q with GGS inserted between Kabat 99 and 100 (antibody)
# heavy: QVQLVESGGGLVQPGRSLRLSCAASGFTFSNAWMHWVRQAPGKGLEWVAQIKAKSNNYATYYAESVKGRFTISRADSKNSIYLQMNSLKTEDTAVYYCRYVHYGAGGSYYGVQAWGQGTTVTVSSASTKGPSVFPLAPSSKSTSGGTAALGCLVKDYFPEPVTVSWNSGALTSGVHTFPAVLQSSGLYSLSSVVTVPSSSLGTQTYICNVNHKPSNTKVDKKVEPKSCDKTHTCPPCPAPEAAGGPSVFLFPPKPKDTLMISRTPEVTCVVVDVSHEDPEVKFNWYVDGVEVHNAKTKPREEQYASTYRVVSVLTVLHQDWLNGKEYKCKVSNKALPAPIEKTISKAKGQPREPQVYTLPPSRCELTKNQVSLSCAVKGFYPSDIAVEWESNGQPENNYKTTPPVLDSDGSFFLVSKLTVDKSRWQQGNVFSCSVMHEALHNHYTQKSLSLSPDYKDDDDK
# Fc: B1 chain
# light: B1 light
# notes: one-arm antibody
# B7: CE115HA000 V11L/D72A/L78I/D101Q, no insertion (antibody, human IgG1, kappa, L234A L235A, N297A, name in Kabat numbering)
# heavy: QVQLVESGGGLVQPGRSLRLSCAASGFTFSNAWMHWVRQAPGKGLEWVAQIKAKSNNYATYYAESVKGRFTISRADSKNSIYLQMNSLKTEDTAVYYCRYVHYGAYYGVQAWGQGTTVTVSSASTKGPSVFPLAPSSKSTSGGTAALGCLVKDYFPEPVTVSWNSGALTSGVHTFPAVLQSSGLYSLSSVVTVPSSSLGTQTYICNVNHKPSNTKVDKKVEPKSCDKTHTCPPCPAPEAAGGPSVFLFPPKPKDTLMISRTPEVTCVVVDVSHEDPEVKFNWYVDGVEVHNAKTKPREEQYASTYRVVSVLTVLHQDWLNGKEYKCKVSNKALPAPIEKTISKAKGQPREPQVYTLPPSRCELTKNQVSLSCAVKGFYPSDIAVEWESNGQPENNYKTTPPVLDSDGSFFLVSKLTVDKSRWQQGNVFSCSVMHEALHNHYTQKSLSLSPDYKDDDDK
# chain: B1 chain
# light: B1 light
# B8: CE115HA000 / GLS3000 one-arm antibody (antibody, human IgG1, kappa, L234A L235A, N297A)
# heavy: B7 heavy with L11V, A75D, I81L, Q110D
# chain: B1 chain
# light: B1 light
# notes: one-arm antibody
# Biological target: T1, biotin-labeled human CD154
# Test: ECL competition: biotinylated CD154, CD3ε homodimer as competitor [2]
# Procedure: Next, each obtained IgG was evaluated for its binding to CD3 and human CD154 at the same time by the competition method (electrochemiluminescence method (ECL method)).
# A TBST solution containing 0.5% BSA (referred to as a blocking solution; the TBST solution was TBS (manufactured by Takara Bio Inc.) supplemented with 0.1% Tween 20) was added at 150 μL/well to streptavidin plate (MSD K.K.), and the plate was incubated at room temperature for 1 hour or longer. After removal of the blocking solution, each well was washed three times with 250 μL of a TBST solution. The antibody-antigen complex solution was added thereto at 50 L/well, and the plate was incubated at room temperature for 1 hour so that the biotinylated antigen-antibody-detection sulfo-tag antibody complex solution bound via the biotinylated antigen to the streptavidin plate. After removal of the antibody-antigen complex solution, each well was washed three times with a TBST solution, and a solution of 4× READ buffer (MSD K.K.) diluted 2-fold with water was added thereto at 150 μL/well, followed by the detection of the luminescence signal of the sulfo-tag using Sector Imager 2400 (MSD K.K.).
row,Binder,"Relative ECL reaction (to no antigen coating), CD3ε[+]"
1,B1,10
2,B2,1
3,B3,13
4,B4,106
5,B5,10

# Biological target: T2, CD3ε homodimer protein (human, UniProt P07766 23-126, limits assumed)
# T2 construct: also called human CD3ε homodimer protein; CD3e homodimer
# Test: SPR (Biacore); CD3ε homodimer immobilized, one-arm antibody as analyte
# T2 sequence (P07766 23-126 limits assumed): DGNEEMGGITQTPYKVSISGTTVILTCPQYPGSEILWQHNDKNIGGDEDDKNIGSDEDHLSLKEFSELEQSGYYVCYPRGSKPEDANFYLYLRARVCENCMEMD
row,Binder,Kd [nM]
1,B6,63.1
2,B7,6.96
3,B8,110
